Values of other authors as cited in paper PMC4370504.

Target: ubiquitin (Homo sapiens) (UniProt P0CG47)
Experiment: ITC

Chain of Pol eta UBZ (Q9Y253 625-665): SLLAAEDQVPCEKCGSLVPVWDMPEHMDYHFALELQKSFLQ

Kd: 81 µM
Substance: Pol eta UBZ (from UniProt Q9Y253)
